Molecular target: the molecule itself
Assay: SEC; size exclusion chromatography of the purified recombinant enzyme against protein markers of 669, 440, 232, 140 and 66 kDa; single peak of 230 kDa, compared with the 55 kDa band in reducing SDS-PAGE

B1: Shewanella sp. ANA-3 L-arabinose isomerase (enzyme, UniProt A0KWX7 1-500, looked up)
chain: MKAFKQKQVWFITGSQDLYGPKVLEQVAKNSEQIVHGFNESSAISIEVVYKPTVKSPREIHAVCQAANSDENCVGVILWMHTFSPAKMWIAGLNELSKPFMHLHTQFNAELPWSEINMNYMNTHQSAHGCREFGFIGTRMRKERKVVVGHWQSSDVQAQIDDWCRAAAGWHESQNLRIARFGDNMRQVAVTEGDKVAAQIQFGYEVHAYSLGELNEAIADIAEGDVTAQLDRYASEYQVGNELFGDEYQLDRLRKEAKIELGLTQFLTQGGFGAFTNCFENLTGMTGLPGLATQRLMANGFGYGGEGDWKTAAMVRIMKVMGQGRAGGTSFMEDYTYNFGATDQVLGAHMLEVCPSIAAAKPRLEVHRHTIGVRCDVPRLLFTGKAGPAINVSTIDLGNRFRIILNELDTVTPPQDLPNLPVASALWEPRPNLAVAAAAWIHAGGAHHSAYSQAITTDQIVDFAEMAGAELVIIDADTKIREFKNELRQNSVYYGLARGL
notes: L-arabinose isomerase (EC 5.3.1.4) of Shewanella sp; ANA-3, product of the araA gene amplified from chromosomal DNA; 500 amino-acid residues, calculated mass 55.3 kDa; Six histidines at the N-terminal end from pET-15b; also called L-AI; Shewanella sp; ANA-3 L-AI; source: E. coli BL21 (DE3) (pMR38, pET-15b), purified (ammonium sulphate precipitation, IMAC, size exclusion chromatography)
stoichiometry N: 4

— PMC3248863, “The acid-tolerant L-arabinose isomerase from the mesophilic Shewanella sp. ANA-3 is highly active at low temperatures” (Microbial Cell Factories, 2011)
